Experimental data taken from publication PMC2408616, “Modular Organization and Combinatorial Energetics of Proline–Tyrosine Nuclear Localization Signals” (PLoS Biology, 2008).

T1: Kap104p (yeast (S. cerevisiae), UniProt P38217 1-918)
T1 construct: Kap104p, yeast homolog of Kapβ2; gene a gift from J. Aitchison, subcloned into pGEX-Tev; also called yeast Karyopherin β2 homolog; source: E. coli Rosetta(DE3)pLysS, purified (glutathione sepharose, TEV cleavage, anion exchange, gel filtration)
T1 sequence (looked up): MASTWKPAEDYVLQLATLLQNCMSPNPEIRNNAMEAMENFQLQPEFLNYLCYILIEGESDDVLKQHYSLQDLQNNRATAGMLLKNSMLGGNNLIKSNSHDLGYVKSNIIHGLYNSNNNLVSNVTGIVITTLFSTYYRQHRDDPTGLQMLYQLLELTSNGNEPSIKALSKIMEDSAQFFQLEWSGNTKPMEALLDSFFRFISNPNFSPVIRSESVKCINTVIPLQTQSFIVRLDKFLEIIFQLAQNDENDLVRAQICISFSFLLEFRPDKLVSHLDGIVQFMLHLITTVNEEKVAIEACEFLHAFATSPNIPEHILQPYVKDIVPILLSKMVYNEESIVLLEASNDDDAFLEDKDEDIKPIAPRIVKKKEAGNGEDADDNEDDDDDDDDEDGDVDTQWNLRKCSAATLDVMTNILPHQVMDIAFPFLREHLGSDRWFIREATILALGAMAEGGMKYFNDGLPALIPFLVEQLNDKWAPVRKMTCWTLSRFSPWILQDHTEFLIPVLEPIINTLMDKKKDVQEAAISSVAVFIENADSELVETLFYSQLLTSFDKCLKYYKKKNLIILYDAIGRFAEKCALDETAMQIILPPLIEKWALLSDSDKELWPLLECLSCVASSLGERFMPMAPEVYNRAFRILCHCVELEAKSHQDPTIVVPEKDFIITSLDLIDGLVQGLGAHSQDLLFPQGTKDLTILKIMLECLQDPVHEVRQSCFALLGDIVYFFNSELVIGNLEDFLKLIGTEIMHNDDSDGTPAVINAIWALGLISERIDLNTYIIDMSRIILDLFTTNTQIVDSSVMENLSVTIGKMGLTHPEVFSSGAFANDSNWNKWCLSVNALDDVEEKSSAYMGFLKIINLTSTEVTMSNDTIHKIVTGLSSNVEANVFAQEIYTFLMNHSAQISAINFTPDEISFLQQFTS


Target: T1, Kap104p
Test: ITC; 90–350 μM MBP-NLS titrated into 9–35 μM Kap104p in the cell; 20 °C; 20 mM Tris pH 7.5, 100 mM NaCl, 2 mM β-mercaptoethanol, 10% glycerol; 35 injections of 8 μl; single-site model
Settings: both partners purified

Binder | binding result | KD,mutant/KD,wild type | also measured
MBP–Nab2p NLS L239Q (domain or fragment, S. cerevisiae, UniProt P32505 201-251, looked up, Nab2p NLS, residues 201-251; also called L239 to Q; source: E. coli BL21(DE3), purified (amylose resin, cation exchange)) DNSQRFTQRGGGAVGKNRRGGRGGNRGGRNNNSTRFNPQAKALGMAGESNM | binds | – | –
MBP–Nab2p NLS R222A (domain or fragment, S. cerevisiae, UniProt P32505 201-251, looked up, Nab2p NLS, residues 201-251; source: E. coli BL21(DE3), purified (amylose resin, cation exchange)) DNSQRFTQRGGGAVGKNRRGGAGGNRGGRNNNSTRFNPLAKALGMAGESNM | – | ~1 | –
MBP–Nab2p NLS L239K (domain or fragment, S. cerevisiae, UniProt P32505 201-251, looked up, Nab2p NLS, residues 201-251; also called L239 to K; source: E. coli BL21(DE3), purified (amylose resin, cation exchange)) DNSQRFTQRGGGAVGKNRRGGRGGNRGGRNNNSTRFNPKAKALGMAGESNM | binds | – | –
MBP–Nab2p NLS L239W (domain or fragment, S. cerevisiae, UniProt P32505 201-251, looked up, Nab2p NLS, residues 201-251; also called L239 to W; source: E. coli BL21(DE3), purified (amylose resin, cation exchange)) DNSQRFTQRGGGAVGKNRRGGRGGNRGGRNNNSTRFNPWAKALGMAGESNM | binds | – | –
MBP–Nab2p NLS R219A (domain or fragment, S. cerevisiae, UniProt P32505 201-251, looked up, Nab2p NLS, residues 201-251; source: E. coli BL21(DE3), purified (amylose resin, cation exchange)) DNSQRFTQRGGGAVGKNRAGGRGGNRGGRNNNSTRFNPLAKALGMAGESNM | – | ~1 | –
MBP–Nab2p NLS R218, R219, R222, R226, R229/AAAAA (domain or fragment, S. cerevisiae, UniProt P32505 201-251, looked up, Nab2p NLS, residues 201-251; also called pentamutant; source: E. coli BL21(DE3), purified (amylose resin, cation exchange)) DNSQRFTQRGGGAVGKNAAGGAGGNAGGANNNSTRFNPLAKALGMAGESNM | – | – | Kd: 2250 nM
MBP–Nab2p NLS R226A (domain or fragment, S. cerevisiae, UniProt P32505 201-251, looked up, Nab2p NLS, residues 201-251; source: E. coli BL21(DE3), purified (amylose resin, cation exchange)) DNSQRFTQRGGGAVGKNRRGGRGGNAGGRNNNSTRFNPLAKALGMAGESNM | – | ~1 | –
MBP–Nab2p NLS L239S (domain or fragment, S. cerevisiae, UniProt P32505 201-251, looked up, Nab2p NLS, residues 201-251; also called L239 to S; source: E. coli BL21(DE3), purified (amylose resin, cation exchange)) DNSQRFTQRGGGAVGKNRRGGRGGNRGGRNNNSTRFNPSAKALGMAGESNM | binds | – | –
MBP–Nab2p NLS L239V (domain or fragment, S. cerevisiae, UniProt P32505 201-251, looked up, Nab2p NLS, residues 201-251; also called L239 to V; source: E. coli BL21(DE3), purified (amylose resin, cation exchange)) DNSQRFTQRGGGAVGKNRRGGRGGNRGGRNNNSTRFNPVAKALGMAGESNM | binds | – | –
MBP–Nab2p NLS R235H (domain or fragment, S. cerevisiae, UniProt P32505 201-251, looked up, Nab2p NLS, residues 201-251; also called R235 to histidine; source: E. coli BL21(DE3), purified (amylose resin, cation exchange)) DNSQRFTQRGGGAVGKNRRGGRGGNRGGRNNNSTHFNPLAKALGMAGESNM | – | 1.7 | –
MBP–Nab2p NLS L239R (domain or fragment, S. cerevisiae, UniProt P32505 201-251, looked up, Nab2p NLS, residues 201-251; also called L239 to R; source: E. coli BL21(DE3), purified (amylose resin, cation exchange)) DNSQRFTQRGGGAVGKNRRGGRGGNRGGRNNNSTRFNPRAKALGMAGESNM | binds | – | –
MBP–Nab2p NLS L239I (domain or fragment, S. cerevisiae, UniProt P32505 201-251, looked up, Nab2p NLS, residues 201-251; source: E. coli BL21(DE3), purified (amylose resin, cation exchange)) DNSQRFTQRGGGAVGKNRRGGRGGNRGGRNNNSTRFNPIAKALGMAGESNM | binds | – | –
MBP–Nab2p NLS R218A (domain or fragment, S. cerevisiae, UniProt P32505 201-251, looked up, Nab2p NLS, residues 201-251; source: E. coli BL21(DE3), purified (amylose resin, cation exchange)) DNSQRFTQRGGGAVGKNARGGRGGNRGGRNNNSTRFNPLAKALGMAGESNM | – | ~1 | –
MBP–Nab2p NLS L239F (domain or fragment, S. cerevisiae, UniProt P32505 201-251, looked up, Nab2p NLS, residues 201-251; also called L239 to F; source: E. coli BL21(DE3), purified (amylose resin, cation exchange)) DNSQRFTQRGGGAVGKNRRGGRGGNRGGRNNNSTRFNPFAKALGMAGESNM | binds | – | –
MBP–Nab2p NLS K216A (domain or fragment, S. cerevisiae, UniProt P32505 201-251, looked up, Nab2p NLS, residues 201-251; source: E. coli BL21(DE3), purified (amylose resin, cation exchange)) DNSQRFTQRGGGAVGANRRGGRGGNRGGRNNNSTRFNPLAKALGMAGESNM | binds | – | –
MBP–Nab2p NLS L239M (domain or fragment, S. cerevisiae, UniProt P32505 201-251, looked up, Nab2p NLS, residues 201-251; also called L239 to M; source: E. coli BL21(DE3), purified (amylose resin, cation exchange)) DNSQRFTQRGGGAVGKNRRGGRGGNRGGRNNNSTRFNPMAKALGMAGESNM | binds | – | –
MBP–Nab2p NLS L239H (domain or fragment, S. cerevisiae, UniProt P32505 201-251, looked up, Nab2p NLS, residues 201-251; also called L239 to H; source: E. coli BL21(DE3), purified (amylose resin, cation exchange)) DNSQRFTQRGGGAVGKNRRGGRGGNRGGRNNNSTRFNPHAKALGMAGESNM | binds | – | –
MBP–Nab2p NLS L239D (domain or fragment, S. cerevisiae, UniProt P32505 201-251, looked up, Nab2p NLS, residues 201-251; source: E. coli BL21(DE3), purified (amylose resin, cation exchange)) DNSQRFTQRGGGAVGKNRRGGRGGNRGGRNNNSTRFNPDAKALGMAGESNM | – | – | fold decrease in affinity against wild type: 11 fold
MBP–Nab2p NLS R235A (domain or fragment, S. cerevisiae, UniProt P32505 201-251, looked up, Nab2p NLS, residues 201-251; source: E. coli BL21(DE3), purified (amylose resin, cation exchange)) DNSQRFTQRGGGAVGKNRRGGRGGNRGGRNNNSTAFNPLAKALGMAGESNM | – | 5.5 | –
MBP–Nab2p NLS L239E (domain or fragment, S. cerevisiae, UniProt P32505 201-251, looked up, Nab2p NLS, residues 201-251; source: E. coli BL21(DE3), purified (amylose resin, cation exchange)) DNSQRFTQRGGGAVGKNRRGGRGGNRGGRNNNSTRFNPEAKALGMAGESNM | – | – | fold decrease in affinity against wild type: 7 fold
